Test results taken from patent US9243044B2, “Anticoagulant polypeptide and applications thereof” (GUANGDONG MEDICAL COLLEGE, priority 2011, dated 2016).

T1: human fXIIa (Homo sapiens, UniProt P00748)
T1 construct: Human coagulation factors IIa (thrombin), Xa, XIa, XIIa, EGR-fXa; purchased Haematologic Technologies Inc (United States)
T1 sequence (P00748 373-615 limits assumed): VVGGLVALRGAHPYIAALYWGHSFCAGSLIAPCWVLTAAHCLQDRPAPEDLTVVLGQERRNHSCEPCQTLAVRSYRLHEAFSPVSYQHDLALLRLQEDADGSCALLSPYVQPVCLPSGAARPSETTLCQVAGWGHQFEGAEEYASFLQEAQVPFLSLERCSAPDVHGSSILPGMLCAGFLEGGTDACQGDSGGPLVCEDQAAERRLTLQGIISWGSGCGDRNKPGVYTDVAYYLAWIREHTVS
T1 sequence (P00748 20-372 limits assumed): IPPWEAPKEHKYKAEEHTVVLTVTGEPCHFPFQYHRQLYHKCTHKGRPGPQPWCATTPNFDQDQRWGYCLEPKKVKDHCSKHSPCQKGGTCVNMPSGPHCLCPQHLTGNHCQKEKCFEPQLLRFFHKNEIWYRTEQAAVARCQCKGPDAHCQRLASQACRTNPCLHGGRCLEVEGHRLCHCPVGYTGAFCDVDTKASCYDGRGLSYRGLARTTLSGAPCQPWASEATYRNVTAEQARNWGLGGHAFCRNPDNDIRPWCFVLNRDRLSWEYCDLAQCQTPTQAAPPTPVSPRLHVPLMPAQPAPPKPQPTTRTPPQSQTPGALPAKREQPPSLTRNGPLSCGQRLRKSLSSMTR


How the values were obtained:
[1] = test system: SD rats; test: Rat arterio-venous shunt thrombus formation model; format: in vivo; settings: 100 U·kg^−1 i.v.
Description: 50 SPF grade male SD rats (provided by the laboratory animal center of Guangdong Medical College, 300-350 g body weight) were randomly divided into saline control group, positive control group (100 U·kg^−1 heparin sodium, Shanghai No. 1 Biochemical & Pharmaceutical Co. Ltd), and rNAPT-1 low dose (100 μg·kg^−1), middle dose (1 mg·kg^−1), high dose group (5 mg·kg^−1), 10 rats each group, respectively. These rats were anaesthetized with 10% chloral hydrate (250 mg/kg) by intraperitoneal injection. The right common carotid artery and left external jugular vein was exposed and dissected bluntly from the surrounding tissue after a surgical incision. One end of a polyethylene pipe (1.5 mm of diameter, 22 cm of length) with a 5 cm length of No. 4 operation suture in it and filled with 50 U/mL heparin solution was inserted into the right common carotid artery, and the other end was inserted into the left external […] vein. 5 min after tail intravenous injection of drugs, the artery clamp was opened, and blood flow from the right common carotid artery to the left external jugular vein through the polyethylene pipe. After 15 min of blood flow, the suture line was quickly removed and weighed. The net weight of thrombus is total weight minus suture weight; inhibition rate=(wet weight of thrombus of saline control group−wet weight of thrombus of administration group)/wet weight of thrombus of saline control group×100%.

[2] = test system: normal human plasma; test: aPTT assay in normal human plasma; format: biochemical; settings: for prolongation of aPTT (in words): 100 nM and 500 nM; for aPTT: normal human plasma; for multiples of prolonging aPTT: ratio of mean aPTT to blank control
Description: (§1) The recombinant anticoagulant polypeptides were expressed in Escherichia coli and purified in our laboratory. Anticoagulant activity was determined by measuring the aPTT and PT.
For the aPTT assay, 10 μl recombinant protein at various concentrations was mixed with 50 μl fresh normal human plasma, 20 μl aPTT reagent (MDC Hemostasis, Germany) and incubated for 15 mins at 37° C. 20 μl 0.05 mol/L prewarmed CaCl2 was then added to initiate the clotting reaction. The clotting time was measured with the absorbance at 630 nm by using an E1x808 kinetic microtiter reader (BioTek, United States). Each concentration was repeated 3 times. The ratio of the mean aPTT value of each concentration to blank control group is multiples of prolonging the aPTT.

[3] = test system: normal human plasma; test: PT assay in normal human plasma; format: biochemical; settings: for prolongation of PT (in words): 100 nM and 500 nM; for PT: normal human plasma
Description: as §1
For the PT assay, 10 μl recombinant protein at various concentration was mixed with 45 μl normal human plasma and incubated for 15 mins at 37° C. 45 μl prewarmed PT reagent (MDC Hemostasis, Germany) was then added and the clotting time was measured with the absorbance at 630 nm by using an E1x808 kinetic microtiter reader (BioTek, United States). Each concentration was repeated 3 times.

[4] = molecular target: T2, human fXIa (Homo sapiens, UniProt P03951); test: Chromogenic assay, fXIa; format: biochemical; settings: for inhibition of the activity of fXIa: 100 nM; for inhibition of the activity of fXIa (in words): 200 nM
T2 construct: Human coagulation factors IIa (thrombin), Xa, XIa, XIIa, EGR-fXa; purchased Haematologic Technologies Inc (United States)
T2 sequence (P03951 19-387 limits assumed): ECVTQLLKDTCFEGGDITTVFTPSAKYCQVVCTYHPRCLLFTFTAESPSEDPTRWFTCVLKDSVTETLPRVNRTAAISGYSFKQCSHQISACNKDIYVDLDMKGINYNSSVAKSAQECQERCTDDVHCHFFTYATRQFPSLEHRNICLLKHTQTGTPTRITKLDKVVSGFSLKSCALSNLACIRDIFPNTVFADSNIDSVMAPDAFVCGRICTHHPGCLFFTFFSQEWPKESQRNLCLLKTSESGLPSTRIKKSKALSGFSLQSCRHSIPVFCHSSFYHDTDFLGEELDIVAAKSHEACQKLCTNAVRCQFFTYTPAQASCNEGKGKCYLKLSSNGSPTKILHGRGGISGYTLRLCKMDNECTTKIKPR
T2 sequence (P03951 388-625 limits assumed): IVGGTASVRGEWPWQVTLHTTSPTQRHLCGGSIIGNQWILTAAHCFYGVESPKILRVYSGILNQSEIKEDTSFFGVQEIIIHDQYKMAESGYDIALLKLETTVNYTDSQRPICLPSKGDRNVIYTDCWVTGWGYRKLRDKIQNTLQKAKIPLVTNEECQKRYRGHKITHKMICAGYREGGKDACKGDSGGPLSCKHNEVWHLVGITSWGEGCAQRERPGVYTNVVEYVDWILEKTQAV
Excerpt: (§2) The recombinant anticoagulant polypeptides in the present invention were expressed in E. coli and purified in our laboratory, of which the activities against coagulation factors were investigated by chromogenic assays. Human coagulation factors IIa (thrombin), Xa, XIa, XIIa, EGR-fXa were products of Haematologic Technologies Inc (United States). Recombinant fVIIa was products of Novo-Nordisk (Denmark). Recombinant soluble tissue factor (sTF) was purchased from Protgen (Beijing, China). The following chromogenic substrates were used for these coagulation factor assays: S2765 for human fXa, S2288 for human fVIIa and fIIa, 52366 for human fXIa and fXIIa, respectively.
(§3) The chromogenic assays were carried out in a total reaction volume of 100 μl in individual wells of a 96-well microtiter plate. 50 μl fIIa, fXa, fXIa, or fXIIa (final concentration: 1 nM) was incubated with 10 μl recombinant anticoagulant polypeptide at various concentrations (or PBS control group) Assays for the detection activity of fVIIa: 50 μl fVIIa+TF (1 μM) and EGR-fXa (final concentration 500 nM) was incubated for 15 mins at 25° C., respectively. After the addition of 40 μl of prewarmed chromogenic substrate to a final concentration of 400 μM, the changes of absorbance at 405 nm were monitored by using an E1x808 kinetic microtiter reader. The data were used to calculate the velocities of response.

[5] = molecular target: T3, human fIIa (thrombin) (Homo sapiens, UniProt P00734); test: Chromogenic assay, fIIa (thrombin); format: biochemical
T3 construct: Human coagulation factors IIa (thrombin), Xa, XIa, XIIa, EGR-fXa; purchased Haematologic Technologies Inc (United States)
Excerpt: as §2, §3

[6] = molecular target: T4, human fXa (Homo sapiens, UniProt P00742); test: Chromogenic assay, fXa; format: biochemical
T4 construct: Human coagulation factors IIa (thrombin), Xa, XIa, XIIa, EGR-fXa; purchased Haematologic Technologies Inc (United States)
T4 sequence (P00742 41-179 limits assumed): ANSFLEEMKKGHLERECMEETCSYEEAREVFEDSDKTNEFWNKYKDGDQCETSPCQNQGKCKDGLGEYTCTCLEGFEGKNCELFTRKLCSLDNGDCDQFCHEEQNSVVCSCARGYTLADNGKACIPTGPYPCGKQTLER
T4 sequence (P00742 235-488 limits assumed): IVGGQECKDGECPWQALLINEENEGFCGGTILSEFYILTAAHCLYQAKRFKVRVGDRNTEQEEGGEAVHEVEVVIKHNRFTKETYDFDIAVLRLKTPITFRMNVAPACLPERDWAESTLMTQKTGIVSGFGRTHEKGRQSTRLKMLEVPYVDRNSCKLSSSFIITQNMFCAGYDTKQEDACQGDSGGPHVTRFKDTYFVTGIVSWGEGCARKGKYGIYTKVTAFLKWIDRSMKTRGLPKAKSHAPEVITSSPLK
Excerpt: as §2, §3

[7] = molecular target: T1, human fXIIa; test: Chromogenic assay, fXIIa; format: biochemical
Excerpt: as §2, §3

[8] = molecular target: T5, fVIIa/TF (Homo sapiens, UniProt P08709); test: Chromogenic assay, fVIIa/TF; format: biochemical
T5 construct: Recombinant fVIIa was products of Novo-Nordisk (Denmark); purchased Novo-Nordisk (Denmark) for fVIIa; Protgen (Beijing, China) for sTF; Haematologic Technologies Inc for EGR-fXa
T5 sequence (P08709 61-212 limits assumed): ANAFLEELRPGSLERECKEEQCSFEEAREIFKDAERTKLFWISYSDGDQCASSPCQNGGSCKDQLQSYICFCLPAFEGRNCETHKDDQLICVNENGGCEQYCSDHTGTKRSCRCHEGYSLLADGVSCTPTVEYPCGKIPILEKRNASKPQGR
T5 sequence (P08709 213-466 limits assumed): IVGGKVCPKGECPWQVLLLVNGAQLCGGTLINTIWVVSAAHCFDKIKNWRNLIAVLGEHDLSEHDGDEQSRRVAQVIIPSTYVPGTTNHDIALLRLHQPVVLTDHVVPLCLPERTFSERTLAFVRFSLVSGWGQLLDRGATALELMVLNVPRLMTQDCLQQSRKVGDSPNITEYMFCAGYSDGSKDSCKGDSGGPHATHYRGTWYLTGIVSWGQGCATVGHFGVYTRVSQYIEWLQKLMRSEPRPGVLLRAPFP
T5 sequence (P13726 33-251 partner limits assumed): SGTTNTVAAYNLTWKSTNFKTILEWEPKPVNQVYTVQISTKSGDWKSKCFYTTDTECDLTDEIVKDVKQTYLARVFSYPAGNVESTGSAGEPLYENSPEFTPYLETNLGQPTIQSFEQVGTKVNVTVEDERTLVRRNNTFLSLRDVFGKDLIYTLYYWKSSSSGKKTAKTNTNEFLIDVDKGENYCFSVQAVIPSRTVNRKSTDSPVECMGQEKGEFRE
Excerpt: as §2, §3

[9] = test system: BALb/c mice; test: Mouse tail bleeding time; format: in vivo; settings: tail transected after 10 min
Description: After 10 min, the distal tip 1.5 mm of the mouse tail was transected and the blood oozed was soaked with filter paper very 30 seconds until the bleeding stops. The bleeding time was defined as the time elapsed from the tail transection to the stoppage of bleeding.

Molecule	prolongation of aPTT (in words) [2]	aPTT ([2]; 100 nM) [s]	multiples of prolonging aPTT ([2]; 100 nM)	aPTT ([2]; 500 nM) [s]	multiples of prolonging aPTT ([2]; 500 nM)	prolongation of PT (in words) [3]	PT ([3]; 100 nM) [s]	PT ([3]; 500 nM) [s]	inhibition of the activity of fXIa [4]	inhibition of the activity of fXIa (in words) [4]	effect on fIIa activity (in words) ([5]; 100 nM)	effect on fIIa activity (in words) ([5]; 200 nM)	effect on fXa activity (in words) ([6]; 100 nM)	effect on fXa activity (in words) ([6]; 200 nM)	effect on fXIIa activity (in words) ([7]; 100 nM)	effect on fXIIa activity (in words) ([7]; 200 nM)	effect on fVIIa/TF activity (in words) ([8]; 100 nM)	effect on fVIIa/TF activity (in words) ([8]; 200 nM)	Bleeding time ([9]; 100 μg·kg^−1 tail vein) [min]	Bleeding time ([9]; 1 mg·kg^−1 tail vein) [min]	also measured
heparin sodium [reference compound]																					wet weight of thrombus [1]: 14.2 ± 3.6 mg; Inhibition rate % ([1]; vs saline control): 74.3%
NAPTin-3 (protein, Sequence derived from Ancylostoma caninum or Synthetic) NPSCGENERHDECSRKECDPKCKYDGTEEKDDEKPVVCLTRVCYGDCICRDGFLRNKNGACVKAEDCELDNM	significantly prolong aPTT	83.0 ± 1.2	2.07	219.3 ± 6.2	5.47	couldn't prolong PT	13.5 ± 0.4	12.3 ± 0.8	more than 90%	almost completely inhibited	without affecting	without affecting	without affecting	without affecting	without affecting	without affecting	without affecting	without affecting	8.38 ± 1.3	8.29 ± 2.5	Bleeding time ([9]; 5 mg·kg^−1 tail vein): 8.32 ± 1.8 min
NAPTin-7 (protein, Sequence derived from Ancylostoma caninum or Synthetic) NPSCGENERHDECSRKECDPKCKYDGTEEKDDEKPVVCLTRVCYGDCICRDGFLRNKNGACVKAEDC	significantly prolong aPTT	78.7 ± 8.1	1.96	218.3 ± 5.9	5.44	couldn't prolong PT	11.7 ± 0.5	12.7 ± 0.4	more than 90%	almost completely inhibited	without affecting	without affecting	without affecting	without affecting	without affecting	without affecting	without affecting	without affecting	8.30 ± 2.0	8.26 ± 1.9	Bleeding time ([9]; 5 mg·kg^−1 tail vein): 8.31 ± 2.2 min
NAPTin-5 (protein, Sequence derived from Ancylostoma caninum or Synthetic) NPSCGENERHDECSRKECDPKCKYDGTEEKDDEKPVVCLTRVCYGDCICRDGFLRNKNGACVKAEDCEL	significantly prolong aPTT	77.9 ± 2.9	1.94	226.8 ± 6.6	5.66	couldn't prolong PT	12.2 ± 0.6	12.6 ± 0.4	more than 90%	almost completely inhibited	without affecting	without affecting	without affecting	without affecting	without affecting	without affecting	without affecting	without affecting	8.30 ± 2.3	8.31 ± 1.0	Bleeding time ([9]; 5 mg·kg^−1 tail vein): 8.33 ± 2.4 min
